Results from patent publication US20250243272A1 (GOOD T CELLS, published 2025).
Positions count from the first letter of the chain named.

T1: Lrig-1 protein expressed on the surfaces of L cells (human, UniProt Q96JA1 35-1093)
T1 construct: no signal peptide limits are stated; also called L cells that stably express Lrig-1
T1 sequence: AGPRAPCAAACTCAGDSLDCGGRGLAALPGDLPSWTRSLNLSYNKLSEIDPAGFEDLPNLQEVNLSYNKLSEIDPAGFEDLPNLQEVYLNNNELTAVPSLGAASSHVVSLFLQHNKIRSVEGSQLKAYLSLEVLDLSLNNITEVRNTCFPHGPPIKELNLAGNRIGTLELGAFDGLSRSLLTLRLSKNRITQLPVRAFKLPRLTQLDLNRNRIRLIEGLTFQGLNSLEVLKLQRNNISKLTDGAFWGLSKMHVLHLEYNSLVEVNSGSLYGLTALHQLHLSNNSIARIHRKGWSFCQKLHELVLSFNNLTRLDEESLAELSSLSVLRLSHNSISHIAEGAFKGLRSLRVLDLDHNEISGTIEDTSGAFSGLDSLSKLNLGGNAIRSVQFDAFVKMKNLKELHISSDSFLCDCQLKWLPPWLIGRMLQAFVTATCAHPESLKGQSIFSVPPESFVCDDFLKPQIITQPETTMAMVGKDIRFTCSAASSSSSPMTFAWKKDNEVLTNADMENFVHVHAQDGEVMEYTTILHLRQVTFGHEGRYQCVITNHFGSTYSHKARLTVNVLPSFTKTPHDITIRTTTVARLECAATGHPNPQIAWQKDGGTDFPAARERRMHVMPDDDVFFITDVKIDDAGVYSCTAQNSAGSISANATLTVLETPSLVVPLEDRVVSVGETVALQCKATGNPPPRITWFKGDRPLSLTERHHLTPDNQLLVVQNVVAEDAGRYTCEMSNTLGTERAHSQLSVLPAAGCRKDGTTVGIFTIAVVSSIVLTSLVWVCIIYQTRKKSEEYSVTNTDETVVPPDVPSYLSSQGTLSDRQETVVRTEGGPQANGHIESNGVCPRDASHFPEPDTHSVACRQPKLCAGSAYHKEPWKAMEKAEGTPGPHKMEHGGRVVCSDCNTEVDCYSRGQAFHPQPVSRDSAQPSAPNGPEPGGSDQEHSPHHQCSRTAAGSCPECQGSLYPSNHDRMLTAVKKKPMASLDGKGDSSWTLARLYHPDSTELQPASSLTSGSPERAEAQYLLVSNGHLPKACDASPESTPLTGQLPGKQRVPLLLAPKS

B1: GTC210-01 clone (Production Example 1) (antibody, mouse IgG2a, V domains shown)
VH: EVQLLESGGGLVQPGGSLRLSCAASGFTFSGYDMSWVRQAPGKGLEWVSLIYPDSGNKYYADSVKGRFTISRDNSKNTLYLQMNSLRAEDTAVYYCARDAGLSWAGAFDYWGQGTLVTVSS
VL: QSVLTQPPSASGTPGQRVTISCSGSSSNIGSNYVTWYQQLPGTAPKLLIYSDSHRPSGVPDRFSGSKSGTSASLAISGLQSEDEADYYCGSWDYSLSAYVFGGGTKLTVLR
notes: the printed full chains carry mouse constant regions
B2: GTC210-03 clone (Production Example 3) (antibody, mouse IgG2a, V domains shown)
VH: EVQLLESGGGLVQPGGSLRLSCAASGFTFSSYDMSWVRQAPGKGLEWVSGISPDGSNIYYADSVKGRFTISRDNSKNTLYLQMNSLRAEDTAVYYCAKVGLRCRYEACSYAYGMDVWGQGTLVTVSS
VL: B1 VL with T35S, Q80R, G90A, S91T, Y94S, S97N, A98G
B3: GTC 210-04 clone (Production Example 4) (antibody, mouse IgG2a, V domains shown)
VH: EVQLLESGGGLVQPGGSLRLSCAASGFTFSNYDMSWVRQAPGKGLEWVSSISPSSGSIYYADSVKGRFTISRDNSKNTLYLQMNSLRAEDTAVYYCAKDLDAFWRPSFDYWGQGTLVTVSS
VL: B1 VL with S23T, S31N, Y33N, T35N, Q80R, Y94D
notes: The printed heavy variable region is the same as that of GTC110-01
B4: GTC110-04 clone (Production Example 8) (antibody, mouse IgG2a, V domains shown)
VH: EVQLLESGGGLVQPGGSLRLSCAASGFTFSNYAMSWVRQAPGKGLEWVSVISHGGGSTYYADSVKGRFTISRDNSKNTLYLQMNSLRAEDTAVYYCARVISNCHLGVCYYSNGMDVWGQGTLVTVSS
VL: B1 VL with S31N, Y33D, T35Y, H54Q, Q80R, S91T, A98G
notes: also called GTC110-04 antibody; GTTC110-04 antibody
B5: GTC110-03 clone (Production Example 7) (antibody, mouse IgG2a, V domains shown)
VH: EVQLLESGGGLVQPGGSLRLSCAASGFTFSNYAMSWVRQAPGKGLEWVSAIYPGGGSIYYADSVKGRFTISRDNSKNTLYLQMNSLRAEDTAVYYCARDILPCPWGRCYYDYAMDVWGQGTLVTVSS
VL: B1 VL with G24D, Y33T, T35S, S51A, S53N, H54N, Q80R, S91T, A98G
B6: GTC210-02 clone (Production Example 2) (antibody, mouse IgG2a, V domains shown)
VH: EVQLLESGGGLVQPGGSLRLSCAASGFTFSNYYMSWVRQAPGKGLEWVSGISPGDSSTYYADSVKGRFTISRDNSKNTLYLQMNSLRAEDTAVYYCAKGLYSNPNEPFDYWGQGTLVTVSS
VL: B1 VL with S23T, T35S, S51D, H54Q, Q80R, S91T, S97N, A98G
B7: GTC110-02 clone (Production Example 6) (antibody, mouse IgG2a, V domains shown)
VH: EVQLLESGGGLVQPGGSLRLSCAASGFTFSDYYMSWVRQAPGKGLEWVSGISHDSGSKYYADSVKGRFTISRDNSKNTLYLQMNSLRAEDTAVYYCARHWTTFDYWGQGTLVTVSS
VL: B1 VL with Y33N, S51A, D52N, H54N, Q80R, S91A

Target: T1, Lrig-1 protein expressed on the …
Test: FACS on L cells stably expressing Lrig-1, eFlour 670-conjugated anti-mouse secondary antibody
Method: In order to examine whether the monoclonal antibodies according to the present invention, produced in Production Examples 1 to 8, well recognize Lrig-1, each of the antibodies of Production Examples 1 to 8 was bound to L cells that stably express Lrig-1, and then an eFlour 670-conjugated secondary antibody capable of recognizing mouse antibodies was added thereto. Next, the binding affinities of the monoclonal antibodies for the Lrig-1 protein were analyzed using FACS.

Binder	binding result
B1	binds
B2	binds
B3	binds
B4	binds
B5	binds
B6	binds
B7	binds
